One molecule from patent publication CN114805559A (UNIV ZHEJIANG, dated 2022) can be followed below.

The target of the assay is 新型冠状病毒SARS-CoV-2受体结合域RBD重组蛋白 (pET-28a(+)/RBD, E. coli Rosetta) (SARS-CoV-2, UniProt P0DTC2 319-541). Kind of assay: BLI (Fortebio), KD = Kdis/Kon.

Usually Kd stands for the equilibrium constant for the complex coming apart.

B1: 全人源抗新冠病毒受体结合域单链抗体No4 (purified recombinant scFv from pET-30a(+)/anti-RBD No4 in E. coli Rosetta) (scFv, not shown: small tags and cut ends)
scFv: RSSCRNPGGALVQPGGSLRLSCETSGFTFSRYWMNWFRQAPGKGLVWVSHISNNGRVTGYADSVKGRFTISRDNAKNILYLQMSGLRAEDTSLYYCARVHNAFCNSVSCVDAFDVWGQGTTVTVSSGGGGSGGGGSGGGGSDIVMTQTPSSLSASVGDRVTITCRASQRINSLLNWYQHKPGKPPKLLIYGASTLQSGVPSRFSGSESGADFTLTISSLQPEDVGTYYCQKYNSAPHTFGQGTRLEIK
notes: also called 抗RBD单链抗体No4; 抗RBD单链重组抗体No4
Turning to B1, the Kd was found to be 1.61 nM.
